Laboratory results: patent US20050260153, “Facilitation of iontophoresis using charged moieties” (published 2005)

Tests used:
Settings in all cases: tags: 125I-labelled; chain copies: 2
[1] = target: T1, VEGF165 (UniProt P15692-4 P15692-4:27-191); experiment: competition; CMC conjugates inhibit VEGF/Flt-1 binding better than non-enhanced aptamer; CMC alone no effect; values in figure
[2] = target: T1, VEGF165; experiment: competition; VEGF/Flt-1 inhibition less effective than 30K linear; values in figure
[3] = target: T1, VEGF165; experiment: competition; VEGF/Flt-1 inhibition less effective than 20K/20K branched; values in figure
[4] = target: T1, VEGF165; experiment: competition; VEGF/Flt-1 inhibition more effective than 10K linear; values in figure
[5] = target: T1, VEGF165; experiment: competition; inhibits 125I-VEGF165 binding to Flt-1/Fc; much more effective than EYE002; PBS, 1 mM CaCl2, 1 mM MgCl2, 0.01% HSA, pH 7.4, 37 C; IC50 only in figure
Description: Each well is then washed with 300 μL of binding buffer (PBS with 1 mM calcium chloride, 1 mM magnesium chloride, 0.01% HSA, PH 7.4) at room temperature twice. For KDR/Fc, 0.25 picomole (85 ng) of the chimeric receptor in 100 μL of binding buffer is added into the first 11 wells, whereas the twelfth well receive 0.5 picomole (118 ng) of human ICAM-1/Fc chimera protein as the background control well. For Flt-1/Fc, 0.125 picomole (30.8 ng) of the chimeric receptor in 100 μL of binding buffer each is added into the first 11 wells, whereas the background control well (#12) receive 0.5 picomole (118 ng) of human ICAM-1/Fc chimera protein. For neuropilin-1/Fc, 0.2 picomole (48 ng) of the chimeric receptor in 100 μl of binding buffer is added to all 12 wells. The chimeric receptors and human ICAM-1/Fc protein are captured onto the well by binding to the immobilized anti-human IgG₁ Fc fragment-specific antibody in each well at room temperature for 2 to 3 hour. […]
A set of 10 five-fold dilutions of the Pegaptanib (tube #1 to #10) ranging from 1 μM (or 2 μM) to 0.512 picomolar (pM) (or 1.024 pM) are each mixed with about 0.01 μCi of ¹²⁵I-VEGF₁₆₅ in binding buffer (PBS with 1 mM calcium chloride, 1 mM Magnesium Chloride, 0.01% HSA, pH 7.4) in non-stick 1.5 mL microfuge tubes, in a total 100 μL final volume each. […] The radioactivity of each well is determined by scintillation counting.

[6] = target: T1, VEGF165; experiment: competition; 3'-PEG more effective than non-enhanced aptamer in inhibiting VEGF/Flt-1 binding; values in figure
[7] = target: T1, VEGF165; experiment: competition; dextran conjugates inhibit VEGF/Flt-1 binding better than non-enhanced aptamer; dextran alone no effect; values in figure

T1 sequence (P15692 other isoform, or with tags, fused parts or gaps): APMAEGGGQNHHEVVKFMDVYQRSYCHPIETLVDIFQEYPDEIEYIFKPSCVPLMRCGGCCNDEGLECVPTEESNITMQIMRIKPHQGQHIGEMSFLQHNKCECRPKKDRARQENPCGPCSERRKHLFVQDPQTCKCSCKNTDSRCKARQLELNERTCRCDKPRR

B1: 5'-CMC VEGF aptamer conjugate (ssRNA)
RNA: CGGAAUCAGUGAAUGCUUAUACAUCCG
modifications: 2'-F on C and U, 2'-OMe on G and A except unmodified ribo A at positions 4 and 5; 5'-carboxymethyl cellulose (about 50 kDa)
**Q.** Does B1 bind [1]?
**A.** Result: binds

B2: 10K linear PEG VEGF aptamer conjugate (ssRNA)
RNA: CGGAAUCAGUGAAUGCUUAUACAUCCG
modifications: 2'-F on C and U, 2'-OMe on G and A except unmodified ribo A at positions 4 and 5; PEG 10K linear
**Q.** Does B2 bind [2]?
**A.** Result: binds

B3: 5K/5K branched PEG VEGF aptamer conjugate (ssRNA)
RNA: CGGAAUCAGUGAAUGCUUAUACAUCCG
modifications: 2'-F on C and U, 2'-OMe on G and A except unmodified ribo A at positions 4 and 5; PEG 5K/5K branched
**Q.** Does B3 bind [3]?
**A.** Result: binds

B4: 30K linear PEG VEGF aptamer conjugate (ssRNA)
RNA: CGGAAUCAGUGAAUGCUUAUACAUCCG
modifications: 2'-F on C and U, 2'-OMe on G and A except unmodified ribo A at positions 4 and 5; PEG 30K linear
**Q.** Does B4 bind [4]?
**A.** Result: binds

B5: Pegaptanib (EYE001, Macugen, MacI; 20K/20K branched 5'-PEG VEGF aptamer) (ssRNA)
RNA: CGGAAUCAGUGAAUGCUUAUACAUCCG
modifications: 2'-F on C and U, 2'-OMe on G and A except unmodified ribo A at positions 4 and 5; 5'-PEG 40 kDa branched via amino linker; 3'-3' dT cap
**Q.** Does B5 bind [5]?
**A.** Result: binds

B6: 3'-PEG VEGF aptamer conjugate (ssRNA)
RNA: CGGAAUCAGUGAAUGCUUAUACAUCCG
modifications: 2'-F on C and U, 2'-OMe on G and A except unmodified ribo A at positions 4 and 5; 3'-PEG
**Q.** Does B6 bind [6]?
**A.** Result: binds

B7: 5'-dextran VEGF aptamer conjugate (ssRNA)
RNA: CGGAAUCAGUGAAUGCUUAUACAUCCG
modifications: 2'-F on C and U, 2'-OMe on G and A except unmodified ribo A at positions 4 and 5; 5'-dextran (e.g. 40 kDa)
**Q.** Does B7 bind [7]?
**A.** Result: binds
